Experiment [1] has as its target Spike of SARS-CoV (Urbani) on infected Vero E6 cells and live virus (SARS-CoV, UniProt P59594 14-1255). In words: immunofluorescence on infected Vero E6 cells, 1 µg/ml.
The target of experiment [2] is T1, Spike of MERS-CoV on infected Vero E6 cells and live virus (MERS-CoV, UniProt K9N5Q8 18-1353).
T1 sequence: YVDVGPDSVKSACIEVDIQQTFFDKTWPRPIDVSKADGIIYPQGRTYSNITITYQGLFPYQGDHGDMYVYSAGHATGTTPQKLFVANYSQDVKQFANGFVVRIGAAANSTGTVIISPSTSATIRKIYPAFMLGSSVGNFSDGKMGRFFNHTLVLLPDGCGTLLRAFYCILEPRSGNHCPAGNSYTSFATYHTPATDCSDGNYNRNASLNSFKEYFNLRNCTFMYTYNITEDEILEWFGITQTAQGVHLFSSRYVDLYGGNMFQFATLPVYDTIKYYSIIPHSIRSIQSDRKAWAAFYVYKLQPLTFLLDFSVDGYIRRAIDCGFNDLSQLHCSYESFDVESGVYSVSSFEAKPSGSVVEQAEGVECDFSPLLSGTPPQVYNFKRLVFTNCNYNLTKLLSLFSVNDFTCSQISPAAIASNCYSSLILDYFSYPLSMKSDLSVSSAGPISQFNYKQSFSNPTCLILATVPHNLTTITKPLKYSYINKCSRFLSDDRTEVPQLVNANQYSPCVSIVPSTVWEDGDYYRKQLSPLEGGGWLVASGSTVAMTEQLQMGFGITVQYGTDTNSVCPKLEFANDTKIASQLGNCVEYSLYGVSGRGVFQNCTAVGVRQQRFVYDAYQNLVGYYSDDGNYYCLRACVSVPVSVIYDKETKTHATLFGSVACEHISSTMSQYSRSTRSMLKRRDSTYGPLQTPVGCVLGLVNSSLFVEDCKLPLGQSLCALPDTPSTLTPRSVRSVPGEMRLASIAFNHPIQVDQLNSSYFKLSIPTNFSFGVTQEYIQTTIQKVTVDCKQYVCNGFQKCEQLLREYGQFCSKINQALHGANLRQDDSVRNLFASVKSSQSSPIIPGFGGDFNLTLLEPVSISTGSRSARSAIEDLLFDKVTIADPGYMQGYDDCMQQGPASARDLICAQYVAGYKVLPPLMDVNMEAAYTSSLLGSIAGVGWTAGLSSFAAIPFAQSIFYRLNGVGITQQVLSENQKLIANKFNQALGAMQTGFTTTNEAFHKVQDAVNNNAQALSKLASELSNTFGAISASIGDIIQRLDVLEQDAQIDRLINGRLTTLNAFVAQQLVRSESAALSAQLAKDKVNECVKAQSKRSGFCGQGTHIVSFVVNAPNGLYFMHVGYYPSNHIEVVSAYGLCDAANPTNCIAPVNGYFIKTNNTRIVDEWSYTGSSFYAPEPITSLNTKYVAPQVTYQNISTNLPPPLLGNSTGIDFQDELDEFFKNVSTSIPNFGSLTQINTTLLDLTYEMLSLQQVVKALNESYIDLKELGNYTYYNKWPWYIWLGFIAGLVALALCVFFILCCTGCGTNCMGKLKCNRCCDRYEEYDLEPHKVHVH
The experiment is described as above.

Experiment [3] addresses T2, SARS-CoV-2 S1+S2 (40589-V08B1, Sino Biological) (SARS-CoV-2, UniProt P0DTC2 16-1213). Put plainly: ELISA, hmAb at 10 and 1 ug/ml in duplicate; AUC.
The target in experiment [4] is T3, SARS-CoV-2 S1 (40591-V08H3, Sino Biological) (SARS-CoV-2, UniProt P0DTC2 16-685).
T3 construct: domain: S1
In words: ELISA, hmAb at 10 and 1 ug/ml in duplicate; AUC.

Experiment [5] deals with T4, SARS-CoV-2 S2 (40590-V08B, Sino Biological) (SARS-CoV-2, UniProt P0DTC2 686-1213).
T4 construct: domain: S2
In words: ELISA, hmAb at 10 and 1 ug/ml in duplicate; AUC. (ELISA stands for enzyme-linked immunosorbent assay.)

Experiment [6] concerns the target T2, SARS-CoV-2 S1+S2 (40589-V08B1, Sino …). Put plainly: ELISA on coated protein, anti-human IgG-HRP; AUC of the OD.
For experiment [7], the target named is T3, SARS-CoV-2 S1 (40591-V08H3, Sino …). Described as above.
The target of experiment [8] is T4, SARS-CoV-2 S2 (40590-V08B, Sino …). The experiment is described as above.
Experiment [9] concerns the target Spike of live SARS-CoV-2 WT virus (SARS-CoV-2, UniProt P0DTC2 14-1273). Put plainly: cell-based or functional assay.
For experiment [10] the target is unchanged. In words: cell-based or functional assay. This is another data set of the same source.

B1: 1242F4 (antibody, V domains shown)
VH: EVQLVQSGAEVKKPGTSVKVSCKASGNTVADYYMHWVRQAPRQGLEWVGLINPSGSGTAYAQNFQGRVTLTRDTSTSTLYMELGSLGSEDTAIYYCARMDSSGTYDVWGQGTLVTVSS
VL: EIVLTQSPGTLSLSPGERATLSCRASQSIRSGYLAWYQQKPGQAPRLLIRGASVKATGIPDRFSGSGSGTDFTLTISRLEPEDFVVYYCQHFASSPPRYTFGQGTKLEIK
notes: Recombinant human IgG1
In the case of B1, the binding result in experiment [1] is on record as “binds”; in experiment [2], “binds”; in experiment [4] it was “no binding (tested: 10 ug/ml)”. Further, the “Binding AUC” value in experiment [3] worked out at 27; in experiment [4] it was 1.3; in [5], 28.5; in [6] it was 27; in experiment [7] it was 1.3; in [8] it was 28.5. Also, the “Neutralization IC50 (µg/ml), Live Virus WT” value (shortened to “Neutralization IC50 (µg/ml)”) in [9] was 36.5 µg/mL.

B2: 1250D2 (antibody, V domains shown)
VH: QVQLVQSGAEVKKPGASMKVSCKASGFTFSDYYMHWVRQAPRQGLEWMGLINPSGSGTAYAQNFQGRVTLTRDTSTSTLYMEMGSLTSDDTAVYYCARMDSSGSYDHWGQGTLVTVSS
VL: EIVLTQSPGTLSLSPGDRATLSCRASQTIRISYLAWYQQKPGQAPRLLVYGPSIRATGIPDRFSASGSGTDFTLTISRLEPEDFAVYYCQHYGSSPPRYTFGQGTKLEIK
notes: Recombinant human IgG1
As to B2, the binding result is “binds” in experiment [1], “binds” in experiment [2] and “no binding (tested: 10 ug/ml)” in experiment [4]. In addition, the “Binding AUC” value was determined as 25.3 in experiment [3]; 1.7 in experiment [4]; 28.2 in [5]; 25.3 in experiment [6]; 1.7 in [7]; 28.2 in experiment [8]. Moreover, the “Neutralization IC50 (µg/ml)” value in [9] amounted to 2.36 µg/mL.

B3: 1242C6 (antibody, V domains shown)
VH: EVQLVQSGAEVKKPGASVKVSCKASGFTFSDYYMHWVRQAPRQGLEWMGLINPSGSGTAYAQNFQGRVTLTRDTSTSTLYMEMGSLTSDDTAVYYCARMDSSGSYDHWGQGTLVTVSS
VL: DIVMTQSPGTLSLSPGDRATLSCRASQTIRISYLAWYQQKPGQAPRLLVYGPSIRATGIPDRFSASGSGTDFTLTISRLEPEDFAVYYCQHYGSSPPRYTFGQGTKLEIK
notes: Recombinant human IgG1
With B3, the binding result was “binds” in experiment [1], “binds” in experiment [2] and “no binding (tested: 10 ug/ml)” in [4]. Besides, the “Binding AUC” value in experiment [3] came out at 25.6; in experiment [4] it was 0.8; in experiment [5], 26.7; in [6], 25.6; in experiment [7], 0.8; in experiment [8], 26.7. The “Neutralization IC50 (µg/ml)” value in experiment [9] was found to be 5.68 µg/mL.

B4: CV3-25 (antibody, V domains shown)
VH: QVQLVESGAEVKKPGESLKISCKGSGYTFTRYWIGWVRQMPGKGLEWMGIIYPGDSDTRYSPSFQGHVTISADKSISTAYLQWNSLKASDTAMYYCARLPQYCSNGVCQRWFDPWGQGTLVTVSS
VL: EIVLTQSPSSVSASVGDRVTITCRASQGISSWLAWYQQKPGKAPKLLIYAASSLQSGVPSRFSGSGSGTDFTLTISSLQPEDFATYYCQQGNSFPYTFGQGTNLEIK
For B4, the “Neutralization IC50 (µg/ml)” value in [10] came out at 12.3 µg/mL.

B5: 1246C2 (antibody, V domains shown)
VH: QVQLVQSGGGLVKPGGSLRLSCAASGFTFKTHNMIWVRQAPGKVLEWVSSISGSSSYRYYGDSMKGRLTISRDNAKNSLYLEMNSLRAEDTAVYYCARDKGVGPTMVWYFDLWGRGTLVTVSS
VL: EIVLTQSPATLSLSPGDRATLSCRASQSLSISLAWYQQKPGQAPRLLIYDASIRATGVPPRFSGSGSGTDFTLTISSLEPEDFAVYYCQQWSGWPPRLTFGGGTKVEIK
For the molecule B5, the “Binding AUC” value in experiment [3] stood at 18; in [4], 4.2; in experiment [5], 17.4; in experiment [6], 18; in experiment [7] it was 4.2; in experiment [8], 17.4. Besides, the binding result in [4] was “no binding (tested: 10 ug/ml)”. Moreover, the “Neutralization IC50 (µg/ml)” value in experiment [9] was more than 50 µg/mL.

B6: 1242G6 (antibody, V domains shown)
VH: QVQLVQSGGGVVQPGTSVRLSCAASGFTFSDHGMHWVRQAPGKGLEWVAVISFEGRNKFFADSVKGRSTISRDNSKNTVSMQVDNVRPEDTAVYYCAREHFDGSGSDYIGTRFFDYWGRGALVTVSS
VL: DIQLTQSPSFLSASVGDRVTITCRASQGISHYLTWYQQKPGKAPKLLIYRTSTLQSGVPSRFSGSGSGTVFTLTISSLQPEDLATYYCQHLDNFPTITFGQGTRLDLK
notes: Recombinant human IgG1
Turning to B6, the “Binding AUC” value was 24.3 in experiment [3]; 3.8 in [4]; 22.6 in experiment [5]; 24.3 in experiment [6]; 3.8 in experiment [7]; 22.6 in experiment [8]. Further, the binding result in [7] is recorded as “no binding”. Further, the “Neutralization IC50 (µg/ml)” value in experiment [9] was more than 50 µg/mL.

B7: 1250E10 (antibody, V domains shown)
VH: EVQLVQSGAEVKKPGASVKFSCKASGFRVDGSYMHWVRQAPRGGLEWMGLINPSGSGTAYAQIFQGRVTLTRDTSTSTLYMELGSLGSEDTAMYYCARMDRSGSYDLWGQGTLVIVSS
VL: DIVLTQSPGNLSLSPGERATLSCRASESIRSAYIAWYQQKPGQAPRLLMRGASVRAAGIPDRFSGSGSGTDYALTISRLEPEDFAVYYCQHFASSPPRYTFGQGTKLEIK
notes: Recombinant human IgG1
In the case of B7, the “Binding AUC” value in experiment [3] is 26; in experiment [4] it was 2.9; in [5], 27.9; in experiment [6], 26; in experiment [7], 2.9; in experiment [8] it was 27.9. Moreover, the binding result in experiment [4] is “no binding (tested: 10 ug/ml)”. The “Neutralization IC50 (µg/ml)” value in experiment [9] is more than 50 µg/mL.
